Legend:
[1] = tested on: THP-1 cells over TNF-α-activated HUVEC; assay: Pseudopod protrusion scoring in TEM under flow; assay type: cell-based, human; details: for cells with 2 protrusions / cells with 0 protrusions: 15 min time point, mean of 3 fields of view per flow experiment, three occasions, at least 180 cells per group, % printed; for cells with 2 protrusions: significance ** S367A p ≤ 0.01 (Tukey); for cells with 0 protrusions: significance *** S367A p ≤ 0.001, ** SSAA p ≤ 0.01 (Tukey)
Procedure: (A) The number of protrusions formed over this period was scored as: zero, one, two, or >2. (B) The percentages of cells bearing these protrusions were scored at specific time points: 6 min (blue bars), 15 min (green bars), or 25 min (red bars). Supplementary Videos 2, 3, 4 provide examples of cells producing a range of protrusions as TEM proceeds. Data represent SEM of 3 fields of view per flow experiment, conducted on three separate occasions, and at least 180 cells analyzed per group. Values of the vertical lines indicate the differences in protrusion number (specifically “zero” and “two”) corresponding to each of the cell lines, for which statistical significance is shown in Table 1.
All flow experiments were performed using a 35 mm diameter Glycotech parallel plate flow chamber. Perfusion experiments were performed at 1.5 dyn/cm^2 using a Harvard Apparatus 2000 PHD syringe pump. Perfusion media consisted of: RPMI supplemented with L-glutamine, 10% FCS, 1% penicillin/streptomycin, 50 μM β-mercaptoethanol, and 25 mM HEPES. Human Umbilical Vein Endothelial Cells (HUVEC–Lonza) were seeded onto 35 mm diameter glass coverslips (no. 1 thickness; VWR) that were pre-coated with 10 μg/mL fibronectin (37°C for at least 1 h). Before each perfusion assay, HUVEC were stimulated overnight (16 h) with 10 ng/mL carrier-free recombinant human TNF-α (R&D Systems). Each perfusion assay was performed by injecting a bolus of cells for 6 min, followed by just perfusion media (without cells) for the […]. THP-1 cells were perfused at a density of 0.5 ×10^6 cells per mL. THP-1 cells treated with 10 μM TAPI-0 required a preincubation time of 10 min at 37°C before perfusion over TNF-α-activated HUVEC. Note that 10 μM TAPI-0 was also supplemented in the perfusate. Stills were acquired once every 10 seconds using 10 × objective lens.

THP-1 cells = assay: Antibody-mediated clustering (AMC) of L-selectin-GFP/RFP, FLIM/FRET; assay type: cell-based, human; details: for change in FRET efficiency on AMC or versus comparator (in words) / FRET efficiency after AMC: DREG56 plus secondary antibody; for FRET efficiency after AMC: 10 min at 37°C, GFP/RFP pair
Description: (A) Schematic representation of the cleavage site, transmembrane domain (TMD), and cytoplasmic tail of human L-selectin. Red underlined region of the cleavage site denotes the amino acids that are deleted in ΔM-N L-selectin. […] Red arrow points to the position of the cut site of the L-selectin cleavage domain. (B) Cells expressing matched levels of L-selectin-GFP/RFP in the following forms: WT, ΔM-N, SSAA, ΔM-N^SSAA, and R357A were subjected to AMC using Alexa Fluor 647-conjugated DREG56 or isotype-matched control, followed by goat anti-mouse secondary antibody (see Materials and Methods for more detail). Cells were plated onto poly-L-lysine-coated coverslips and prepared for FLIM/FRET analysis (see materials and methods). FLIM was used to measure the FRET efficiency between the GFP/RFP donor/acceptor pairs as a direct function of cytoplasmic tail clustering […]. At least 45 individual cells were analyzed over 3 independent clustering assays. (C) Representative images are shown for each cell line. The lifetime of fluorescence (Lftm) is expressed in a pseudocolour scale from red (low lifetime with a very high probability of interaction) to blue (high lifetime with a very low probability of interaction). […] Cells were lysed directly in protein loading buffer (containing the reducing agent, dithiothreitol) and resolved onto standard (lower panel) or phos-tag (upper panel) polyacrylamide gels. Antibodies to GFP and RFP were used to, respectively, probe ΔM-N and ΔM-N^SSAA on Western blots. […] Statistics: One-Way ANOVA Tukey's multiple comparison test. **p ≤ 0.01; ***p ≤ 0.001; ****p ≤ 0.0001.
THP-1 cells were adjusted the night before AMC to a density of 0.5 ×10^6 cells per mL. On the same day, 13 mm diameter glass coverslips (thickness “1”) were placed into the base of a 24 well dish, spotted with 100 μL of poly-L-lysine (PLL) to immobilize according to manufacturer's instruction. On the day of the assay, THP-1 cells were counted and adjusted to a density of 1 ×10^6 per mL in 500 μL containing antibody labeling buffer (RPMI culture medium containing FcR block [Miltenyi Biotec]). Cells were labeled with 2 μg per mL DREG56 for 30 min at 4°C, followed by washing (by centrifugation at 300 g and resuspension) in ice cold culture media to remove excess unbound antibody and then incubated back in ice cold labeling buffer containing secondary antibody conjugated to Alexa Fluor […] (Thermo Fisher) for a further 30 min at 4°C. Cells were then washed twice in ice cold neat RPMI and resuspended to 100 μL of neat ice cold RPMI before 80 μL of the cell suspension was seeded onto 13 mm diameter glass coverslips (thickness = “1”), which were pre-coated with PLL-coated the night before. The seeded cells were placed into a humidified cell culture incubator at 37°C and 5% CO2 for 10 min to drive clustering. Adhered cells were flooded in excess 4% paraformaldehyde and fixed for 15 min at room temperature. Fixed coverslips were washed 3 times in PBS and then treated in 10 mg/mL of Sodium Borohydride dissolved in phosphate buffered saline for 10 min at room temperature (to eliminate autofluorescence and enhance signal to noise ratios). Coverslips were subsequently washed in PBS to remove sodium borohydride and mounted using DAKO mounting medium.
FLIM measurement of FRET was performed with a multiphoton microscope system as described previously ([8], [23]). A Nikon TE2000E inverted microscope, combined with an in-house scanner and Chameleon Ti:Sapphire ultrafast pulsed multiphoton laser (Coherent Inc.), was used for excitation of GFP (at 890 nm). Fluorescence lifetime imaging capability was provided by time-correlated, single-photon counting electronics (SPC 700; Becker & Hickl). A 40 × objective (NA 1.3) was used throughout (CFI60 Plan Fluor; Nikon), and data were acquired at 500 ± 20 nm through a bandpass filter (35–5040; Coherent Inc.). […]

[2] = tested on: THP-1 cells on immobilized biglycan; details: isolated THP-1 cells, L-selectin-GFP/RFP; cited from earlier work
Description: This figure pieces together data from our recently published work ([8], [23]) with our data from this study. (A,B) In cells expressing WT L-selectin, clustering is only witnessed within pseudopods of transmigrating cells. […] Moesin-driven clustering is a pre-requisite for L-selectin shedding, and so the balance of L-select ...

[3] = at least 45 cells, 3 independent assays

B1: WT: wild-type human L-selectin, C-terminally tagged with GFP or RFP, expressed in THP-1 cells (protein)
chain: WTYHYSEKPMNWQRARRFCRDNYTDLVAIQNKAEIEYLEKTLPFSRSYYWIGIRKIGGIWTWVGTNKSLTEEAENWGDGEPNNKKNKEDCVEIYIKRNKDAGKWNDDACHKLKAALCYTASCQPWSCSGHGECVEIINNYTCNCDVGYYGPQCQFVIQCEPLEAPELGTMDCTHPLGNFSFSSQCAFSCSEGTNLTGIEETTCGPFGNWSSPEPTCQVIQCEPLSAPDLGIMNCSHPLASFSFTSACTFICSEGTELIGKKKTICESSGIWSNPSPICQKLDKSFSMIKEGDYNPLFIPVAVMVTAFSGLAFIIWLARRLKKGKKSKRSMNDPY
modifications: left off: eGFP (donor copy) or mCherry (acceptor copy, called RFP), C-terminal, kept
cells with 2 protrusions [1]: 36.2% | cells with 0 protrusions [1]: 7.9% | change in FRET efficiency on AMC or versus comparator (in words) (THP-1 cells): significantly increased the FRET efficiency | FRET efficiency after AMC (THP-1 cells; [3]): 12.39% | FRET efficiency without AMC (THP-1 cells; WT L-selectin-GFP/RFP before AMC (isotype-matched control), at least 45 cells, 3 independent assays): 1.35% | clustering on immobilized biglycan [2]: can cluster when seeded onto immobilized biglycan

B2: SSAA: L-selectin with Ser^364 and Ser^367 both mutated to alanines (protein)
chain: WTYHYSEKPMNWQRARRFCRDNYTDLVAIQNKAEIEYLEKTLPFSRSYYWIGIRKIGGIWTWVGTNKSLTEEAENWGDGEPNNKKNKEDCVEIYIKRNKDAGKWNDDACHKLKAALCYTASCQPWSCSGHGECVEIINNYTCNCDVGYYGPQCQFVIQCEPLEAPELGTMDCTHPLGNFSFSSQCAFSCSEGTNLTGIEETTCGPFGNWSSPEPTCQVIQCEPLSAPDLGIMNCSHPLASFSFTSACTFICSEGTELIGKKKTICESSGIWSNPSPICQKLDKSFSMIKEGDYNPLFIPVAVMVTAFSGLAFIIWLARRLKKGKKAKRAMNDPY
modifications: left off: eGFP (donor copy) or mCherry (acceptor copy, called RFP), C-terminal, kept
protrusive activity profile in TEM (in words) ([1]; 6, 15 and 25 min of flow over TNF-α-activated HUVEC): phenocopied more the S367A than the S364A cell line | cells with 2 protrusions [1]: 24.9% | cells with 0 protrusions [1]: 22.4^** % | change in FRET efficiency on AMC or versus comparator (in words) (THP-1 cells): modest but significant drop in FRET efficiency compared to WT L-selectin | FRET efficiency after AMC (THP-1 cells; [3]): 9.25%
